Test results published in IntAct's records for PubMed 20124439.

B1: Glycosylphosphatidylinositol-anchored high density lipoprotein-binding protein 1 (Homo sapiens), Q8IV16 (parent)
chain: MKALGAVLLALLLFGRPGRGQTQQEEEEEDEDHGPDDYDEEDEDEVEEEETNRLPGGRSRVLLRCYTCKSLPRDERCNLTQNCSHGQTCTTLIAHGNTESGLLTTHSTWCTDSCQPITKTVEGTQVTMTCCQSSLCNVPPWQSSRVQDPTGKGAGGPRGSSETVGAALLLNLLAGLGAMGARRP
partner: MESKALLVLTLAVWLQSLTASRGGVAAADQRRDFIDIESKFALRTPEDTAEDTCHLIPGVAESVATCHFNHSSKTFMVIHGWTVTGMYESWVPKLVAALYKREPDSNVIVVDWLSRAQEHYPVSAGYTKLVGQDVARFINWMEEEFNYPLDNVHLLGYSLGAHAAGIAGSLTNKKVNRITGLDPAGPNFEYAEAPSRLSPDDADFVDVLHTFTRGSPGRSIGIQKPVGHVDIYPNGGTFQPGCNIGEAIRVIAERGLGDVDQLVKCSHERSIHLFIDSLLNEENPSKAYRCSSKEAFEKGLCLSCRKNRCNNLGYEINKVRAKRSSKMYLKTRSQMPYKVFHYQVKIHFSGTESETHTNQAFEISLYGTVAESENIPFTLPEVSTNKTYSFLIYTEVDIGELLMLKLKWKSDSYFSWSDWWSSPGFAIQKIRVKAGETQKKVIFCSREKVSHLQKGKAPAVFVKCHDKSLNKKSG

Variants of: B1
Conditions: with lipl_human LPL

Variant	effect of a mutation on the interaction
C65Y	decreasing interaction
Q115P	decreasing interaction
